How the values were obtained:
[1] = biological target: human CD4 antigen expressed on rat T cell line NB2-6TG (human) (UniProt P01730); experiment: FACS, NB2-6TG cells transfected with human CD4; Experiment 1; control antibody at 100 µg/ml
[2] = biological target: human CD4 antigen expressed on rat T cell line NB2-6TG (human) (UniProt P01730); experiment: FACS, NB2-6TG cells transfected with human CD4; Experiment 1; control antibody at 10 µg/ml
[3] = biological target: human CD4 antigen expressed on rat T cell line NB2-6TG (human) (UniProt P01730); experiment: FACS, NB2-6TG cells transfected with human CD4; Experiment 1; control antibody at 2.5 µg/ml
[4] = biological target: human CD4 antigen expressed on rat T cell line NB2-6TG (human) (UniProt P01730); experiment: FACS, NB2-6TG cells transfected with human CD4; Experiment 1; control antibody at 40 µg/ml

## reshaped CAMPATH-1 antibody
[1]
  Mean cellular Fluorescence: 11.6
[2]
  Mean cellular Fluorescence: 9
[3]
  Mean cellular Fluorescence: 8.6
[4]
  Mean cellular Fluorescence: 9.4

From patent USRE46877
